Assay results: patent EP4778941A1, “HER3/MET BINDING MOLECULE AND PHARMACEUTICAL USE THEREOF” (priority 2023, dated 2025)
Read-outs that look alike come from different tables or passages of the source.

How the values were obtained:
[1] = biological target: Human HER3 protein on the cell surface (human) (UniProt P21860); experiment: cell-based or functional assay
[2] = biological target: Human MET protein on the cell surface (human) (UniProt P08581); experiment: cell-based or functional assay
[3] = biological target: Human HER3 and MET proteins together on HER3/MET double-positive cells (human) (UniProt P21860); experiment: cell-based or functional assay
[4] = biological target: Human HER3 protein on the cell surface (human) (UniProt P21860); experiment: FACS on MDA-MB-453 cells (HER3 single-positive)
[5] = biological target: Human MET protein on the cell surface (human) (UniProt P08581); experiment: FACS on NCI-H1703 cells (MET single-positive)
[6] = biological target: Human HER3 and MET proteins together on HER3/MET double-positive cells (human) (UniProt P21860); experiment: FACS on HCC827 Osimertinib-resistant cells (HER3/MET double-positive)
[7] = biological target: Human HER3 and MET proteins together on HER3/MET double-positive cells (human) (UniProt P21860); experiment: cell-based or functional assay; remark: listed apart in the source

Sequence of Human MET protein on the cell surface (human) (P08581 25-1390): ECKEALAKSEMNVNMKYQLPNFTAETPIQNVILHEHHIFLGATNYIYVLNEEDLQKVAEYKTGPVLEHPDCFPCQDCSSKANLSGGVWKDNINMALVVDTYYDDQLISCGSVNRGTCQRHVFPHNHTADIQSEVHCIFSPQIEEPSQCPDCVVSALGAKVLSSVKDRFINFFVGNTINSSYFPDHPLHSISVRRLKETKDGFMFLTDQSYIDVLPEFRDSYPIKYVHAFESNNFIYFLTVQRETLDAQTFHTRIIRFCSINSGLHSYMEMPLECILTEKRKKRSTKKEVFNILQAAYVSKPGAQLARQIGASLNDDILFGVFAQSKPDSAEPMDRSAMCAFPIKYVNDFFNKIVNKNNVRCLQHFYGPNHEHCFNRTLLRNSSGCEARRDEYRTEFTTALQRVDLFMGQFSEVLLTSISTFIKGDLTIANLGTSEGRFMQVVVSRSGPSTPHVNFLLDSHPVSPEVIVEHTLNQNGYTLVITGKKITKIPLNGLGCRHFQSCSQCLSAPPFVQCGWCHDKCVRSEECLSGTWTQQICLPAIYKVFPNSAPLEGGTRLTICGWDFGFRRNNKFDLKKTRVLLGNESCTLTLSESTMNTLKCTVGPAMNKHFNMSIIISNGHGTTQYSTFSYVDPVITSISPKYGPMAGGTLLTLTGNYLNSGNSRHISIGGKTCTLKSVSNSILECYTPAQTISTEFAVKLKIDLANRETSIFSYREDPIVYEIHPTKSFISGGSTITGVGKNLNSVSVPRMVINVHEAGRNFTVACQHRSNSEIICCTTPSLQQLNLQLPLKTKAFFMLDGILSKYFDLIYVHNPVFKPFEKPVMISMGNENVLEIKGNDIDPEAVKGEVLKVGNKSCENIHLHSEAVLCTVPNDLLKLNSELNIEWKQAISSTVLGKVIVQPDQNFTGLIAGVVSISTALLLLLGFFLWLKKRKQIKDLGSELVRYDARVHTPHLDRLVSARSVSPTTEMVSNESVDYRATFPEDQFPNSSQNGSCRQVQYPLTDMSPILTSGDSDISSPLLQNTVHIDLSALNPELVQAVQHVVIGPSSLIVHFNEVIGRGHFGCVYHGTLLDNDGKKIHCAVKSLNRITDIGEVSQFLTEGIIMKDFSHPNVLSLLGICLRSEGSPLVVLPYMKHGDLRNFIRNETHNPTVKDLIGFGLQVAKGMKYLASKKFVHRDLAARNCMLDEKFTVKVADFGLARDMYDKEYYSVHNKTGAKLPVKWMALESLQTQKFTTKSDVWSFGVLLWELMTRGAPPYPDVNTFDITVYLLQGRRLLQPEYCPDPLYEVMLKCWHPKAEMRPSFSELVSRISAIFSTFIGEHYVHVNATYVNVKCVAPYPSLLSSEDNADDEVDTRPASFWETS

Work on IgG1 isotype control antibody yielded a Minimum cell viability (%) [1] of 92.9%, a Minimum cell viability (%) [2] of 78.6% and a Minimum cell viability (%) [3] of 90.9%. For the same substance, the Maximum fluorescence value [4] was 74, the Maximum fluorescence value [5] was 74 and the Maximum fluorescence value [6] was 74. It also gave a Minimum cell viability (%) [7] of 102%.
